Tests used:
[1] = tested on: Max* in heterodimer;ΔMax* in heterodimer V99G;R100E;A101S;L102E;E103S (;), P61244+P61244-3; assay: fluorescence anisotropy; conditions: 37 C, 1:1 mixture, apparent 1/KBinding, internal fluorescein-dT (iFluorT) at position 4, FA: 15 nM dsDNA, 50 mM Tris, 50 mM KCl, pH 7.5, 37 C, EMSA: 250 nM DNA, 20 mM Tris-HCl, 75 mM KCl, 2.5 mM TCEP, 25 ug/mL BSA, 5% glycerol, pH 8.0, room temp …
[2] = tested on: ΔMax* in heterodimer;c-Myc* in heterodimer V99G;R100E;A101S;L102E;E103S (;), P61244-3+P01106; assay: fluorescence anisotropy; conditions: 37 C, 1:1 mixture, apparent 1/KBinding, internal fluorescein-dT (iFluorT) at position 4, FA: 15 nM dsDNA, 50 mM Tris, 50 mM KCl, pH 7.5, 37 C, EMSA: 250 nM DNA, 20 mM Tris-HCl, 75 mM KCl, 2.5 mM TCEP, 25 ug/mL BSA, 5% glycerol, pH 8.0, room temp …
[3] = tested on: ΔMax* (b-HLH-LZ of ΔMax splice isoform) V99G;R100E;A101S;L102E;E103S, P61244-3; assay: fluorescence anisotropy; conditions: 37 C; apparent 1/KBinding of dimer; 1/KDimer 220 ± 20 nM; internal fluorescein-dT (iFluorT) at position 4; FA: 15 nM dsDNA, 50 mM Tris, 50 mM KCl, pH 7.5, 37 C; EMSA: 250 nM DNA, 20 mM Tris-HCl, 75 mM KCl, 2.5 mM TCEP, 25 ug/mL BSA, 5% glycerol, pH 8.0, room temp …
[4] = molecular target: Max* in heterodimer;c-Myc* in heterodimer (;, UniProt P61244;P01106 22-103;368-451, |); assay: EMSA; room temperature; Max*/Max* complex also seen at 2:1 excess of c-Myc*; FA: 15 nM dsDNA, 50 mM Tris, 50 mM KCl, pH 7.5, 37 C; EMSA: 250 nM DNA, 20 mM Tris-HCl, 75 mM KCl, 2.5 mM TCEP, 25 ug/mL BSA, 5% glycerol, pH 8.0, room temp; CD: 25 mM KH2PO4, 25 mM Na2HPO4, 50 mM KCl, 1 mM TCEP, pH 6.8; conditions: protein: recombinant;recombinant; tags: ;; copies: 1;1; label: fluorescein; blunt, self-complementary palindrome
[5] = molecular target: T1, Max* (b-HLH-LZ of WT Max) (UniProt P61244 22-103); assay: fluorescence anisotropy; 37 C; apparent 1/KBinding of dimer; 1/KDimer 8.6 ± 1.2 nM; FA: 15 nM dsDNA, 50 mM Tris, 50 mM KCl, pH 7.5, 37 C; EMSA: 250 nM DNA, 20 mM Tris-HCl, 75 mM KCl, 2.5 mM TCEP, 25 ug/mL BSA, 5% glycerol, pH 8.0, room temp; CD: 25 mM KH2PO4, 25 mM Na2HPO4, 50 mM KCl, 1 mM TCEP, pH 6.8; conditions: protein: recombinant; tags: C-terminal GSGC stated for the deltaMax* construct only; not restated for Max*; chain copies: 2; label: fluorescein; blunt, self-complementary palindrome
[6] = molecular target: T2, c-Myc* (b-HLH-LZ of c-Myc) (UniProt P01106 368-451); assay: fluorescence anisotropy; 37 C; apparent 1/KBinding of dimer; 1/KDimer 0.48 ± 0.5 nM; FA: 15 nM dsDNA, 50 mM Tris, 50 mM KCl, pH 7.5, 37 C; EMSA: 250 nM DNA, 20 mM Tris-HCl, 75 mM KCl, 2.5 mM TCEP, 25 ug/mL BSA, 5% glycerol, pH 8.0, room temp; CD: 25 mM KH2PO4, 25 mM Na2HPO4, 50 mM KCl, 1 mM TCEP, pH 6.8; conditions: protein: recombinant; chain copies: 2; label: fluorescein; blunt, self-complementary palindrome
[7] = molecular target: T1, Max* (b-HLH-LZ of WT Max); assay: fluorescence anisotropy; 37 C; apparent 1/KBinding of dimer; 1/KDimer 55 ± 7 nM; FA: 15 nM dsDNA, 50 mM Tris, 50 mM KCl, pH 7.5, 37 C; EMSA: 250 nM DNA, 20 mM Tris-HCl, 75 mM KCl, 2.5 mM TCEP, 25 ug/mL BSA, 5% glycerol, pH 8.0, room temp; CD: 25 mM KH2PO4, 25 mM Na2HPO4, 50 mM KCl, 1 mM TCEP, pH 6.8; conditions: protein: recombinant; tags: C-terminal GSGC stated for the deltaMax* construct only; not restated for Max*; chain copies: 2; label: fluorescein; blunt, self-complementary palindrome
[8] = molecular target: T2, c-Myc* (b-HLH-LZ of c-Myc); assay: fluorescence anisotropy; 37 C; apparent 1/KBinding of dimer; 1/KDimer 8.5 ± 3 nM; FA: 15 nM dsDNA, 50 mM Tris, 50 mM KCl, pH 7.5, 37 C; EMSA: 250 nM DNA, 20 mM Tris-HCl, 75 mM KCl, 2.5 mM TCEP, 25 ug/mL BSA, 5% glycerol, pH 8.0, room temp; CD: 25 mM KH2PO4, 25 mM Na2HPO4, 50 mM KCl, 1 mM TCEP, pH 6.8; conditions: protein: recombinant; chain copies: 2; label: fluorescein; blunt, self-complementary palindrome
[9] = molecular target: T2, c-Myc* (b-HLH-LZ of c-Myc); assay: CD thermal denaturation; stable complex; FA: 15 nM dsDNA, 50 mM Tris, 50 mM KCl, pH 7.5, 37 C; EMSA: 250 nM DNA, 20 mM Tris-HCl, 75 mM KCl, 2.5 mM TCEP, 25 ug/mL BSA, 5% glycerol, pH 8.0, room temp; CD: 25 mM KH2PO4, 25 mM Na2HPO4, 50 mM KCl, 1 mM TCEP, pH 6.8; conditions: protein: recombinant; chain copies: 2; blunt, self-complementary palindrome
[10] = molecular target: T1, Max* (b-HLH-LZ of WT Max); assay: CD thermal denaturation; complex T° 56.1 C; FA: 15 nM dsDNA, 50 mM Tris, 50 mM KCl, pH 7.5, 37 C; EMSA: 250 nM DNA, 20 mM Tris-HCl, 75 mM KCl, 2.5 mM TCEP, 25 ug/mL BSA, 5% glycerol, pH 8.0, room temp; CD: 25 mM KH2PO4, 25 mM Na2HPO4, 50 mM KCl, 1 mM TCEP, pH 6.8; conditions: protein: recombinant; tags: C-terminal GSGC stated for the deltaMax* construct only; not restated for Max*; chain copies: 2; blunt, self-complementary palindrome
[11] = molecular target: T1, Max* (b-HLH-LZ of WT Max); assay: CD thermal denaturation; complex T° 43.7 C; less stable than E-box; FA: 15 nM dsDNA, 50 mM Tris, 50 mM KCl, pH 7.5, 37 C; EMSA: 250 nM DNA, 20 mM Tris-HCl, 75 mM KCl, 2.5 mM TCEP, 25 ug/mL BSA, 5% glycerol, pH 8.0, room temp; CD: 25 mM KH2PO4, 25 mM Na2HPO4, 50 mM KCl, 1 mM TCEP, pH 6.8; conditions: protein: recombinant; tags: C-terminal GSGC stated for the deltaMax* construct only; not restated for Max*; chain copies: 2; blunt, self-complementary palindrome

T2 sequence (P01106 368-451): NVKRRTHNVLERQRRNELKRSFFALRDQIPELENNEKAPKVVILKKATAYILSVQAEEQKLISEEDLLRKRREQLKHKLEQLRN
T1 sequence (P61244 22-103): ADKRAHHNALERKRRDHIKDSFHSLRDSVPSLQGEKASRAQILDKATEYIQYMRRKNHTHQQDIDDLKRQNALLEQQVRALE
Sequence of Max* in heterodimer;ΔMax* in heterodimer V99G;R100E;A101S;L102E;E103S (;), P61244+P61244-3 (P61244 whole entry V99G/R100E/A101S/L102E/E103S, looked up, one chain of several): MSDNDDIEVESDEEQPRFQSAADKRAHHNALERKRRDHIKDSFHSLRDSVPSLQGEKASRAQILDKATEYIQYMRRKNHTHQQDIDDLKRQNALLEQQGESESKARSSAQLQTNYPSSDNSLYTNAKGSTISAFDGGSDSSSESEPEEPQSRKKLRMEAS
Sequence of ΔMax* in heterodimer;c-Myc* in heterodimer V99G;R100E;A101S;L102E;E103S (;), P61244-3+P01106 (P01106 whole entry, looked up, chain 1 of 2, canonical isoform): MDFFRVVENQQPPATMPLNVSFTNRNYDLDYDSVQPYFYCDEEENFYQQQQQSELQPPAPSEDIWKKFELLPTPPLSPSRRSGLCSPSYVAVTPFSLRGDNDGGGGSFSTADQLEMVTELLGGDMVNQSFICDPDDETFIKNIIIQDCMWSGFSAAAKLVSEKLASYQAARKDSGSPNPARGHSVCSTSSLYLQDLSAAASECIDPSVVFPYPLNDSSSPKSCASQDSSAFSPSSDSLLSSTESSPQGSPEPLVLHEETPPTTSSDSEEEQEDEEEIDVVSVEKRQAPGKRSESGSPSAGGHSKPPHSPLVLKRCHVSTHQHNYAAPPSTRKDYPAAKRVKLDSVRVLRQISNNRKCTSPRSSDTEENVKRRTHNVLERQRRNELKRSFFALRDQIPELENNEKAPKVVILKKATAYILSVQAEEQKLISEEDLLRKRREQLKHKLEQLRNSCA
Sequence of ΔMax* in heterodimer;c-Myc* in heterodimer V99G;R100E;A101S;L102E;E103S (;), P61244-3+P01106 (P61244 whole entry, looked up, stated change not applied, chain 2 of 2, canonical isoform): as the sequence (P61244 whole entry V99G/R100E/A101S/L102E/E103S, looked up, one chain of several) above, with G99V, E100R, S101A, E102L, S103E counted along it
Sequence of ΔMax* (b-HLH-LZ of ΔMax splice isoform) V99G;R100E;A101S;L102E;E103S, P61244-3 (P61244 whole entry V99G/R100E/A101S/L102E/E103S, looked up, canonical isoform): as the sequence (P61244 whole entry V99G/R100E/A101S/L102E/E103S, looked up, one chain of several) above
Sequence of Max* in heterodimer;c-Myc* in heterodimer (P61244 22-103, chain 1 of 2): as the sequence (P61244 22-103) above
Sequence of Max* in heterodimer;c-Myc* in heterodimer (P01106 368-451, chain 2 of 2): as the sequence (P01106 368-451) above

Molecule “GAGTAGGGATCCCTACTC (double strand) [Non-specific DNA, fluorescein-labeled]” has a Kd ([1]; 1/KDimer 460 ± 34 nM) of 40 nM and a Kd ([2]; 1/KDimer 38 ± 5 nM) of 11 nM.

Molecule “GAGTAGCACGTGCTACTC (double strand) [E-box, fluorescein-labeled]” has a Kd ([1]; 1/KDimer 120 ± 10 nM) of 4 nM, a Kd [3] of 80 nM and a Kd ([2]; 1/KDimer 17 ± 2 nM) of 10 nM.

B1: E-box, fluorescein-labeled (dsDNA)
DNA 1: GAGTAGCACGTGCTACTC
DNA 2: GAGTAGCACGTGCTACTC
modifications: internal fluorescein-dT (iFluorT) at position 4
With B1 the binding result [4] was “binds”, the Kd [5] was 4.8 nM and the Kd [6] was 70 nM.

B2: Non-specific DNA, fluorescein-labeled (dsDNA)
DNA 1: GAGTAGGGATCCCTACTC
DNA 2: GAGTAGGGATCCCTACTC
modifications: internal fluorescein-dT (iFluorT) at position 4
With B2 the Kd [7] was 23 nM and the Kd [8] was 280 nM.

B3: E-box, unlabeled (CD) (dsDNA)
DNA 1: GAGTAGCACGTGCTACTC
DNA 2: GAGTAGCACGTGCTACTC
B3: binds [9]; binds [10].

B4: Non-specific DNA, unlabeled (CD) (dsDNA)
DNA 1: GAGTAGGGATCCCTACTC
DNA 2: GAGTAGGGATCCCTACTC
B4: binds [11].
